Data: patent publication US20040077046

Tested on: 3H-acetylated histone H4 peptide ([3H]-Ac(H41-24))

flag epitope-tagged HDAC9 (HDAC9v1 with C-terminal flag tag)
in vitro histone deacetylase assay (release of 3H-acetate from the peptide by immunoprecipitated enzyme): HDAC9 could deacetylate the histone peptide substrate at a level that was equivalent to UDAC3 and HDAC4
